This series concerns the molecule itself. The series can be described thus: non-reducing SDS-PAGE and immunoblot. (In general: In western blotting, separated proteins are transferred to a membrane and probed.)

B1: PRDX4, murine islets (enzyme, mouse (endogenous in murine islets), UniProt O08807 41-274, looked up)
chain: LESDERFRTRENECHFYAGGQVYPGEASRVSVADHSLHLSKAKISKPAPYWEGTAVINGEFKELKLTDYRGKYLVFFFYPLDFTFVCPTEIIAFGDRIEEFKSINTEVVACSVDSQFTHLAWINTPRRQGGLGPIRIPLLSDLNHQISKDYGVYLEDSGHTLRGLFIIDDKGVLRQITLNDLPVGRSVDETLRLVQAFQYTDKHGEVCPAGWKPGSETIIPDPAGKLKYFDKLN
On to B1, for which the stoichiometry N (commonly a count of units in the complex or per binding partner) is 2.
